Reference: patent US20210246166A1 (Bayer, published 2021)
Numbered stars: 1 amine (or outer) side, 2 acyl side, 3 side chain; on linkers, the order of the positions; unused ones are H or OH. Bridge positions count the residues as written; N and C are the ends. Square brackets hold non-standard residues; d marks the D form. Ends that are not written are not given here. (N-Benzyl)D = (2S)-2-Amino-4-(benzylamino)-4-oxobutanecarboxylic acid, O=C(C[C@H](N[*:1])C(=O)[*:2])NCc1ccccc1; (S)‑4‑Piperazine‑2‑carboxylic acid = (S)-4-piperazine-2-carboxylic acid; X11 = (S)‑Piperidine‑3‑carboxylic acid, O=C([C@H]1CCCN([*:1])C1)[*:2]; 4‑Aminomethylphenylacetic acid = O=C(Cc1ccc(CN[*:1])cc1)[*:2]; NHCH2(1,3-C6H4)CH2CO = O=C(Cc1cccc(CN[*:1])c1)[*:2]; Oic = O=C(O)[C@@H]1C[C@@H]2CCCC[C@@H]2N1; PEG6 = NCCOCCOCCOCCOCCOCCOCCC(=O)O; tBuAla = CC(C)(C)C[C@H](N)C(=O)O; Pen = CC(C)(S)[C@H](N)C(=O)O; NMeA = CN[C@@H](C)C(=O)O; Orn = NCCC[C@H](N)C(=O)O; Dap = NC[C@H](N)C(=O)O; dβPro = D-beta-Proline; Ahx = NCCCCCC(=O)O; Sar = CNCC(=O)O

T1: recombinant rat MASP1 active protease (amino acids 302-704, C-terminal His Tag) (rat, UniProt Q8CHN8 302-704)
T1 sequence: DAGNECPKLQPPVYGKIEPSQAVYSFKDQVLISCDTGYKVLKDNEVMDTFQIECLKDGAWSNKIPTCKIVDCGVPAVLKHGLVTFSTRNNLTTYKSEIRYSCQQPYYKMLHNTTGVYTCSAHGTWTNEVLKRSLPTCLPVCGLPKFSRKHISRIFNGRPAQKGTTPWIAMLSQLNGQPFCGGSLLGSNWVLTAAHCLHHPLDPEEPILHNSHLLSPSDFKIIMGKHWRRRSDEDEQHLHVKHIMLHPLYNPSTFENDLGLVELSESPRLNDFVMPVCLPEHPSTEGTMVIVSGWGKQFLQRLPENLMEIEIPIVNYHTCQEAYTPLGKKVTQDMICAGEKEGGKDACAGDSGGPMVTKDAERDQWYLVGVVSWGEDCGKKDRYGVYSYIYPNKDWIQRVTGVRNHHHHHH

B1: Example 464: ((N-Me)G)-IC+SRSLP-(Oic)-I-(Pen)+IPGD-OH (peptide)
peptide: [Sar]ICSRSLP[Oic]I[Pen]IPGD-OH
modifications: disulfide 3-11; N-terminus assumed
SMILES: CC[C@H](C)[C@H](NC(=O)CNC)C(=O)N[C@H]1CSSC(C)(C)[C@@H](C(=O)N[C@H](C(=O)N2CCC[C@H]2C(=O)NCC(=O)N[C@@H](CC(=O)O)C(=O)O)[C@@H](C)CC)NC(=O)[C@H]([C@@H](C)CC)NC(=O)[C@@H]2C[C@@H]3CCCC[C@@H]3N2C(=O)[C@@H]2CCCN2C(=O)[C@H](CC(C)C)NC(=O)[C@H](CO)NC(=O)[C@H](CCCNC(=N)N)NC(=O)[C@H](CO)NC1=O
B2: Example 465: ((N-Me)G)-IC+SRSLP-(Oic)-I-(Pen)+IPD-(Ahx)-OH (peptide)
peptide: [Sar]ICSRSLP[Oic]I[Pen]IPD[Ahx]-OH
modifications: disulfide 3-11; N-terminus assumed
SMILES: CC[C@H](C)[C@H](NC(=O)CNC)C(=O)N[C@H]1CSSC(C)(C)[C@@H](C(=O)N[C@H](C(=O)N2CCC[C@H]2C(=O)N[C@@H](CC(=O)O)C(=O)NCCCCCC(=O)O)[C@@H](C)CC)NC(=O)[C@H]([C@@H](C)CC)NC(=O)[C@@H]2C[C@@H]3CCCC[C@@H]3N2C(=O)[C@@H]2CCCN2C(=O)[C@H](CC(C)C)NC(=O)[C@H](CO)NC(=O)[C@H](CCCNC(=N)N)NC(=O)[C@H](CO)NC1=O
B3: Example 463: ((N-Me)G)-IC+SRSLP-(Oic)-I-(Pen)+IPDK-OH (peptide)
peptide: [Sar]ICSRSLP[Oic]I[Pen]IPDK-OH
modifications: disulfide 3-11; N-terminus assumed
SMILES: CC[C@H](C)[C@H](NC(=O)CNC)C(=O)N[C@H]1CSSC(C)(C)[C@@H](C(=O)N[C@H](C(=O)N2CCC[C@H]2C(=O)N[C@@H](CC(=O)O)C(=O)N[C@@H](CCCCN)C(=O)O)[C@@H](C)CC)NC(=O)[C@H]([C@@H](C)CC)NC(=O)[C@@H]2C[C@@H]3CCCC[C@@H]3N2C(=O)[C@@H]2CCCN2C(=O)[C@H](CC(C)C)NC(=O)[C@H](CO)NC(=O)[C@H](CCCNC(=N)N)NC(=O)[C@H](CO)NC1=O
B4: Example 477: ((N-Me)G)-IC+SRSLP-(Oic)-I-(Pen)+IP-(3-Aminomethylphenylacetic acid)-OH (peptide)
peptide: [Sar]ICSRSLP[Oic]I[Pen]IP[NHCH2(1,3-C6H4)CH2CO]-OH
modifications: disulfide 3-11; N-terminus assumed
SMILES: CC[C@H](C)[C@H](NC(=O)CNC)C(=O)N[C@H]1CSSC(C)(C)[C@@H](C(=O)N[C@H](C(=O)N2CCC[C@H]2C(=O)NCc2cccc(CC(=O)O)c2)[C@@H](C)CC)NC(=O)[C@H]([C@@H](C)CC)NC(=O)[C@@H]2C[C@@H]3CCCC[C@@H]3N2C(=O)[C@@H]2CCCN2C(=O)[C@H](CC(C)C)NC(=O)[C@H](CO)NC(=O)[C@H](CCCNC(=N)N)NC(=O)[C@H](CO)NC1=O
B5: Example 466: ((N-Me)G)-IC+SRSLP-(Oic)-I-(Pen)+IPDD-OH (peptide)
peptide: [Sar]ICSRSLP[Oic]I[Pen]IPDD-OH
modifications: disulfide 3-11; N-terminus assumed
SMILES: CC[C@H](C)[C@H](NC(=O)CNC)C(=O)N[C@H]1CSSC(C)(C)[C@@H](C(=O)N[C@H](C(=O)N2CCC[C@H]2C(=O)N[C@@H](CC(=O)O)C(=O)N[C@@H](CC(=O)O)C(=O)O)[C@@H](C)CC)NC(=O)[C@H]([C@@H](C)CC)NC(=O)[C@@H]2C[C@@H]3CCCC[C@@H]3N2C(=O)[C@@H]2CCCN2C(=O)[C@H](CC(C)C)NC(=O)[C@H](CO)NC(=O)[C@H](CCCNC(=N)N)NC(=O)[C@H](CO)NC1=O
B6: Example 476: ((N-Me)G)-IC+SRSLP-(Oic)-I-(Pen)+IP-(4-Aminomethylphenylacetic acid)-OH (peptide)
peptide: [Sar]ICSRSLP[Oic]I[Pen]IP[4‑Aminomethylphenylacetic acid]-OH
modifications: disulfide 3-11; N-terminus assumed
SMILES: CC[C@H](C)[C@H](NC(=O)CNC)C(=O)N[C@H]1CSSC(C)(C)[C@@H](C(=O)N[C@H](C(=O)N2CCC[C@H]2C(=O)NCc2ccc(CC(=O)O)cc2)[C@@H](C)CC)NC(=O)[C@H]([C@@H](C)CC)NC(=O)[C@@H]2C[C@@H]3CCCC[C@@H]3N2C(=O)[C@@H]2CCCN2C(=O)[C@H](CC(C)C)NC(=O)[C@H](CO)NC(=O)[C@H](CCCNC(=N)N)NC(=O)[C@H](CO)NC1=O
B7: Example 478: aIC+SRSLP-(Oic)-I-(Pen)-+IP-(3-Aminomethylphenylacetic acid)-OH (peptide)
peptide: [dA]ICSRSLP[Oic]I[Pen]IP[NHCH2(1,3-C6H4)CH2CO]-OH
modifications: disulfide 3-11; N-terminus assumed
SMILES: CC[C@H](C)[C@H](NC(=O)[C@@H](C)N)C(=O)N[C@H]1CSSC(C)(C)[C@@H](C(=O)N[C@H](C(=O)N2CCC[C@H]2C(=O)NCc2cccc(CC(=O)O)c2)[C@@H](C)CC)NC(=O)[C@H]([C@@H](C)CC)NC(=O)[C@@H]2C[C@@H]3CCCC[C@@H]3N2C(=O)[C@@H]2CCCN2C(=O)[C@H](CC(C)C)NC(=O)[C@H](CO)NC(=O)[C@H](CCCNC(=N)N)NC(=O)[C@H](CO)NC1=O
B8: Example 469: (Orn)-IC+SRSLP-(Oic)-I-(Pen)+IPD-OH (peptide)
peptide: [Orn]ICSRSLP[Oic]I[Pen]IPD-OH
modifications: disulfide 3-11; N-terminus assumed
SMILES: CC[C@H](C)[C@H](NC(=O)[C@@H](N)CCCN)C(=O)N[C@H]1CSSC(C)(C)[C@@H](C(=O)N[C@H](C(=O)N2CCC[C@H]2C(=O)N[C@@H](CC(=O)O)C(=O)O)[C@@H](C)CC)NC(=O)[C@H]([C@@H](C)CC)NC(=O)[C@@H]2C[C@@H]3CCCC[C@@H]3N2C(=O)[C@@H]2CCCN2C(=O)[C@H](CC(C)C)NC(=O)[C@H](CO)NC(=O)[C@H](CCCNC(=N)N)NC(=O)[C@H](CO)NC1=O
B9: Example 472: ((N-Me)G)-IC+SRSLP-(Oic)-I-(Pen)+IP-(PEG5(22 atoms))-OH (peptide)
peptide: [Sar]ICSRSLP[Oic]I[Pen]IP[PEG6]-OH
modifications: disulfide 3-11; N-terminus assumed
SMILES: CC[C@H](C)[C@H](NC(=O)CNC)C(=O)N[C@H]1CSSC(C)(C)[C@@H](C(=O)N[C@H](C(=O)N2CCC[C@H]2C(=O)NCCOCCOCCOCCOCCOCCOCCC(=O)O)[C@@H](C)CC)NC(=O)[C@H]([C@@H](C)CC)NC(=O)[C@@H]2C[C@@H]3CCCC[C@@H]3N2C(=O)[C@@H]2CCCN2C(=O)[C@H](CC(C)C)NC(=O)[C@H](CO)NC(=O)[C@H](CCCNC(=N)N)NC(=O)[C@H](CO)NC1=O
B10: Example 480: (beta-P)-IC+SRS-((tBu)A)-PPI-(Pen)+IPD-OH (peptide)
peptide: XICSRS[tBuAla]PPI[Pen]IPD-OH
modifications: disulfide 3-11; not fully specified (residue 1); printed as (beta-P)-IC + SRS-((tBu)A)-PPI-(Pen) + IPD-OH
B11: Example 460: ((S)-Piperidine-3-carboxylic acid)-IC+SRSLP-(Oic)-I-(Pen)+I-OH (peptide)
peptide: [X11]ICSRSLP[Oic]I[Pen]I-OH
modifications: disulfide 3-11; N-terminus assumed
SMILES: CC[C@H](C)[C@H](NC(=O)[C@H]1NC(=O)[C@H]([C@@H](C)CC)NC(=O)[C@@H]2C[C@@H]3CCCC[C@@H]3N2C(=O)[C@@H]2CCCN2C(=O)[C@H](CC(C)C)NC(=O)[C@H](CO)NC(=O)[C@H](CCCNC(=N)N)NC(=O)[C@H](CO)NC(=O)[C@@H](NC(=O)[C@@H](NC(=O)[C@H]2CCCNC2)[C@@H](C)CC)CSSC1(C)C)C(=O)O

These binders were tested against T1, recombinant rat MASP1 active protease … (assay: cell-based or functional assay).

Binder | rat MASP1 IC50 [nM]
[dβPro]ICSRS[tBuAla]PPI[Pen]IPD-OH (disulfide 3-11) [Example 481: (beta-p)-IC+SRS-((tBu)A)-PPI-(Pen)+IPD-OH] | 20
[Sar]ICSRSLP[Oic]I[Pen]I[(S)‑4‑Piperazine‑2‑carboxylic acid]-OH (disulfide 3-11) [Example 474: ((N-Me))-GIC+SRSLP-(Oic)-I-(Pen)+I-((S)-4-Piperazine-2-carboxylic acid)-OH] | 87
B1 | 94
B2 | 72
B3 | 190
B4 | 154
B5 | 17.6
B6 | 53
B7 | 68
B8 | 120
[Sar]ICSRSLP[Oic]I[Pen]IP[Dap]-OH (disulfide 3-11; also: Dap at position 14 joined through its 3-amino group) [Example 467: ((N-Me)G)-IC+SRSLP-(Oic)-I-(Pen)+IP-(*Dap)-OH] | 170
[Sar]ICSRSLP[Oic]I[Pen]IPD[PEG4‑CH2CO2H(15atoms)]-OH (disulfide 3-11) [Example 471: ((N-Me)G)-IC+SRSLP-(Oic)-I-(Pen)+IPD-(PEG4-CH2CO2H (15 atoms))-OH] | 78
B9 | 100
[Piperidin‑4‑ylacetic acid]ICSRS[tBuAla]PPICIPD-OH (disulfide 3-11) [Example 475: (Piperidin-4-ylacetic acid)-IC+SRS-((tBu)A)-PPIC+IPD-OH] | 250
[Sar]ICSRSLP[Oic]I[Pen]IP[PEG4‑CH2CO2H(15atoms)]-OH (disulfide 3-11) [Example 470: ((N-Me)G)-IC+SRSLP-(Oic)-I-(Pen)+IP-(PEG4-CH2CO2H (15 atoms))-OH] | 100
B10 | 24
B11 | 210
[NMeA]ICSRSLP[Oic]I[Pen]IP[(N-Benzyl)D]-NH2 (disulfide 3-11) [Example 462: ((N-Me)A)-IC+SRSLP-(Oic)-I-(Pen)+IP-((N-Benzyl)D)-NH2] | 160

The binders below were run against recombinant rat MASP2 active protease (amino acids 296-685, C-terminal His Tag) (rat, UniProt Q9JJS8 296-685) (assay: cell-based or functional assay).
Sequence of recombinant rat MASP2 active protease (amino acids 296-685, C-terminal His Tag) (Q9JJS8 other isoform, or with tags, fused parts or gaps limits assumed): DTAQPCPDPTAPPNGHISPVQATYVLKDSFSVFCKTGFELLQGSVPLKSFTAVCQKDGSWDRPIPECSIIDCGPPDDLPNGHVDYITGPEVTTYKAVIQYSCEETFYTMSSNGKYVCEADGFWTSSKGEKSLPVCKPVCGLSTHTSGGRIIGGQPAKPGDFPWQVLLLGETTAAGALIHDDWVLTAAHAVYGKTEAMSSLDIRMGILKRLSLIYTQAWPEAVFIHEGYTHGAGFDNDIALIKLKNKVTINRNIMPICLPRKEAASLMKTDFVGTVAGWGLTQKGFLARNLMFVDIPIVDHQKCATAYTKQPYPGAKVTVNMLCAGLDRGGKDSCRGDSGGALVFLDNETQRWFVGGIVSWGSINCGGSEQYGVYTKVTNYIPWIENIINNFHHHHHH

Binder | rat MASP2 IC50 [nM]
[dβPro]ICSRS[tBuAla]PPI[Pen]IPD-OH (disulfide 3-11) [Example 481: (beta-p)-IC+SRS-((tBu)A)-PPI-(Pen)+IPD-OH] | 36
[Sar]ICSRSLP[Oic]I[Pen]I[(S)‑4‑Piperazine‑2‑carboxylic acid]-OH (disulfide 3-11) [Example 474: ((N-Me))-GIC+SRSLP-(Oic)-I-(Pen)+I-((S)-4-Piperazine-2-carboxylic acid)-OH] | 26
B1 | 120
B2 | 140
B3 | 100
B4 | 123
B5 | 72
B6 | 61
B7 | 49
B8 | 34
[Sar]ICSRSLP[Oic]I[Pen]IP[Dap]-OH (disulfide 3-11; also: Dap at position 14 joined through its 3-amino group) [Example 467: ((N-Me)G)-IC+SRSLP-(Oic)-I-(Pen)+IP-(*Dap)-OH] | 70
[Sar]ICSRSLP[Oic]I[Pen]IPD[PEG4‑CH2CO2H(15atoms)]-OH (disulfide 3-11) [Example 471: ((N-Me)G)-IC+SRSLP-(Oic)-I-(Pen)+IPD-(PEG4-CH2CO2H (15 atoms))-OH] | 71
B9 | 49
[Piperidin‑4‑ylacetic acid]ICSRS[tBuAla]PPICIPD-OH (disulfide 3-11) [Example 475: (Piperidin-4-ylacetic acid)-IC+SRS-((tBu)A)-PPIC+IPD-OH] | 25
[Sar]ICSRSLP[Oic]I[Pen]IP[PEG4‑CH2CO2H(15atoms)]-OH (disulfide 3-11) [Example 470: ((N-Me)G)-IC+SRSLP-(Oic)-I-(Pen)+IP-(PEG4-CH2CO2H (15 atoms))-OH] | 54
B10 | 41
B11 | 69
[NMeA]ICSRSLP[Oic]I[Pen]IP[(N-Benzyl)D]-NH2 (disulfide 3-11) [Example 462: ((N-Me)A)-IC+SRSLP-(Oic)-I-(Pen)+IP-((N-Benzyl)D)-NH2] | 150
